Biological target: caleosin 2 (CLO2), Cub fusion (A. thaliana, UniProt Q9FLN9 1-243)
Assay: two-hybrid

caleosin 2 (CLO2), Cub fusion, sequence (Q9FLN9 whole entry, the tested form may be a part): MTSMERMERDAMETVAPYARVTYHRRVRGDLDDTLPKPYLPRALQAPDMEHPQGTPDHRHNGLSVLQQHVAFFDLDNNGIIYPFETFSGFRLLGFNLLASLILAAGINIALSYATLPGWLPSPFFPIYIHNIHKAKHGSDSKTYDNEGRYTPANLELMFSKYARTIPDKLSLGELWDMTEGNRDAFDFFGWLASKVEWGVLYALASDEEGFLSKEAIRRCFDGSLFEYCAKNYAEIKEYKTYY

fold weaker β-galactosidase activity (against CLO1, CLO3 and OLE1): 2 fold
B1: autophagy-related protein 8b (ATG8b), NubG fusion (natural protein, A. thaliana, UniProt Q9XEB5 1-117, looked up)
chain: MEKNSFKLSNPLEMRMAESTRIRAKYPERVPVIVEKAGQSDVPDIDKKKYLVPADLTIGQFVYVVRKRIKLGAEKAIFVFVKNTLPPTAALMSAIYEEHKDEDGFLYMTYSGENTFG

From paper doi:10.1101/2023.04.04.535563 (bioRxiv, 2023)
